Common to all, as to experiment: cell-cell adhesion assay
In assay [1] the target is human CD58 K34A (human) (UniProt P19256).
Assay [2] addresses T1, human CD58 R44A (human, UniProt P19256 29-250, R44A).
T1 sequence (looked up): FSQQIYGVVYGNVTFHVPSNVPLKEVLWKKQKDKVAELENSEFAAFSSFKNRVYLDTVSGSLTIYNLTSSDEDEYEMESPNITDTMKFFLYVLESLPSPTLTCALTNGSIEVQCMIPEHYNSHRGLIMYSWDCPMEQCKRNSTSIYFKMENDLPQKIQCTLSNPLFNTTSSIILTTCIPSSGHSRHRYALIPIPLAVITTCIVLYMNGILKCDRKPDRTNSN

Assay [3] deals with T2, human CD58 E76A (human, UniProt P19256 29-250, E76A).
T2 sequence (looked up): T1 sequence (looked up) with A44R, E76A

The target of assay [4] is T3, human CD58 K87A (human, UniProt P19256 29-250, K87A).
T3 sequence (looked up): T1 sequence (looked up) with A44R, K87A

In assay [5] the target is T4, human CD58 E25A (human, UniProt P19256 29-250, E25A).
T4 sequence (looked up): T1 sequence (looked up) with E25A, A44R

For assay [6], the target named is T5, human CD58 K30A (human, UniProt P19256 29-250, K30A).
T5 sequence (looked up): T1 sequence (looked up) with K30A, A44R

The target in assay [7] is T6, human CD58 D33A (human, UniProt P19256 29-250, D33A).
T6 sequence (looked up): T1 sequence (looked up) with D33A, A44R

Assay [8] has as its target T7, human CD58 E37A (human, UniProt P19256 29-250, E37A).
T7 sequence (looked up): T1 sequence (looked up) with E37A, A44R

Numbering of substitutions follows the chain as printed.

The source of these data is article PMC2191747 (The Journal of Experimental Medicine, 1994).

As for “human CD2 (from UniProt P06729 25-351) (receptor)”, in assay [1], the % binding relative to wtCD58 came to 1%.

B1: human CD2 (receptor, human (endogenous in Jurkat), UniProt P06729 25-351, looked up)
chain: KEITNALETWGALGQDINLDIPSFQMSDDIDDIKWEKTSDKKKIAQFRKEKETFKEKDTYKLFKNGTLKIKHLKTDDQDIYKVSIYDTKGKNVLEKIFDLKIQERVSKPKISWTCINTTLTCEVMNGTDPELNLYQDGKHLKLSQRVITHKWTTSLSAKFKCTAGNKVSKESSVEPVSCPEKGLDIYLIIGICGGGSLLMVFVALLVFYITKRKKQRSRRNDEELETRAHRVATEERGRKPHQIPASTPQNPATSQHPPPPPGHRSQAPSHRPPPPGHRVQHQPQKRPPAPSGTQVHQQKGPPLPRPRVQPKPPHGAAENSLSPSSN
B1: the “% binding relative to wtCD58” value in assay [2] is 79%; in assay [3], 107%; in assay [4], less than 30%; in assay [5], 68%; in assay [6], 64%; in assay [7] it was 26%. Besides, in assay [8], the “% binding relative to wtCD58” value was less than 30%.
